Experimental data reported in patent publication US20200179236A1, “METHOD AND PRODUCT FOR CARIES TREATMENT” (Credentis AG, priority 2016, published 2020).
Where no end group is shown, it is not given here.

Legend:
[1] = pH at which the peptide starts to undergo self-assembly; format: physicochemical
Source text: Particular self-assembling peptides for use according to the invention are selected such that they are in self-assembled form when the pH of their environment is below a certain pH, e.g. below pH 7.5, e.g., at physiological ionic strength. The pH at which preferred self-assembling peptides of the invention undergo self-assembly is below 7.5, preferably below 7.2, more preferably below 7.0. For example, the pH at which the self-assembling peptide P11-4 (SEQ ID NO:1) and terminally modified P11-4 (SEQ ID NO:2) start to undergo self-assembly is about 7.5. This means that the self-assembling peptides start to self-assemble to a significant extent when the pH drops below 7.5.
As used herein, the pH at which the self-assembling peptide starts to undergo self-assembly refers to the pH below which a significant extent of self-assembly of the peptides in solution is observed, which means that at least about 25%, about 30%, about 35%, about 40%, about 45%, about 50%, about 55%, about 60%, about 65%, about 70%, about 75%, about 80%, about 85%, about 90%, about 95%, about 99% or even about 100% of the peptides found in the dental care product are assembled. In a preferred embodiment, at least about 25% of the peptides found in the dental care product are assembled below the pH at which the peptide starts to undergo self-assembly. […]

[2] = Self-assembling kinetic of P11-4 by measurements of elastic modulus G′; format: physicochemical; details: 15 mg/ml, neutral pH, 37° C., 0.1% strain, 1 rad/second; independent of ionic strength
Experimental: P11-4 was prepared at 15 mg/ml with different buffer compositions (see below) measured at 0.1% strain, 37° C. and a frequency of 1 rad/second. Self-assembly of peptide monomers to polymers takes more than 5 min independent of the used ionic strength at neutral pH.
Squares (top line of symbols) —NaCl: Tris (0.055 M)+NaCl, final ionic strength 142 mM;
Artifical saliva (second line of symbols from top): Tris, Ca(NO3)2, KH2PO4 (ratio 0.77:0.14: 0.08), ionic strength 142 mM;
Dulbecco's Modified Eagle Medium (DMEM): NaCl, NaHCO3,KCl,CaCl2, MgSO4 (ratio 0.66:0.4:0.05: 0.02:0.007), ionic strength 165 mM; MgSO4: 0.055 M Tris+0.192 M MgSO4 0.14 M Ionic strength

For “CH3CO-QQRFEWEFEQQ-NH2 (Ac-QQRFEWEFEQQ-NH2) [terminally modified P11-4]”, the “pH at which the peptide starts to undergo self-assembly” value [1] was “about 7.5”.
In the case of QQRFEWEFEQQ, the “time of self-assembly of peptide monomers to polymers” value [2] is reported as “more than 5 min” and the “pH at which the peptide starts to undergo self-assembly” value [1] is reported as “about 7.5”.
